Experimental data reported in article doi:10.1101/2022.12.21.521443 (2022).

Target: S. cerevisiae Pbs2 target peptide (S. cerevisiae, UniProt P08018)
Sequence (P08018 whole entry): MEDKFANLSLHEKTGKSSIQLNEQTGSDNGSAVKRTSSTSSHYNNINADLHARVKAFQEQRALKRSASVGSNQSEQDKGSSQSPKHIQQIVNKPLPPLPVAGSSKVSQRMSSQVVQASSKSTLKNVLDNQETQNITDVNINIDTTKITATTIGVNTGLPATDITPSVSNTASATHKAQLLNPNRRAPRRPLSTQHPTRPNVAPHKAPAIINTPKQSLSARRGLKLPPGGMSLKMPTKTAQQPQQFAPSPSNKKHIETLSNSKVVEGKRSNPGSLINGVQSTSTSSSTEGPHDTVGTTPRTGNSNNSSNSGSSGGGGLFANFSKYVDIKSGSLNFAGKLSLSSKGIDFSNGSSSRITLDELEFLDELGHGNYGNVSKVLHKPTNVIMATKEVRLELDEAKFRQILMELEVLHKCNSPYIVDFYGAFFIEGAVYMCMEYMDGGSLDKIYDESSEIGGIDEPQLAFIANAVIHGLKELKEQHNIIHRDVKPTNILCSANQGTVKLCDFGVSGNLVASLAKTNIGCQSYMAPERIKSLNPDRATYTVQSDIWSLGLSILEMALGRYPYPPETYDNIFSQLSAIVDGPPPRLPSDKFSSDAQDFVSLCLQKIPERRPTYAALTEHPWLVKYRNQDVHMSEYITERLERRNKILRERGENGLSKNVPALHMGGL

- Kd: 3000 nM
B1: wild-type S. cerevisiae Sho1 SH3 domain (domain or fragment)
chain: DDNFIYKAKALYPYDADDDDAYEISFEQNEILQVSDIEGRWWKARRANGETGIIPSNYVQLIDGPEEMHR
